{"source": "paper PMC5464003", "key": {"[1]": {"molecular_target": "GST-F28F8.5 (C. elegans) (UniProt H9G301)", "test": "pull-down; GST-F28F8.5 or GST adsorbed in equal amounts on glutathione-agarose, incubated with 35S-MDT-6 from rabbit reticulocyte lysate; bound fraction resolved by PAGE, autoradiography, excised bands counted by scintillation"}, "[2]": {"molecular_target": "GST-F28F8.5 (C. elegans) (UniProt H9G301)", "test": "pull-down; GST-F28F8.5 or GST adsorbed in equal amounts on glutathione-agarose, incubated with His6-MDT-30-FLAG purified on a nickel column; Western blot with anti-FLAG M2, densitometry (ImageJ)"}}, "data": [{"binder": "35S-Methionine-MDT-6 (natural protein, 35S-methionine label) MMPRMGPPAAARQDNPLHVSFRNPQWPPNFINKDNVLDYFCNQANAFYEMNSCNQQIRMQNIVNRTVEECLRTMPGIQYVLWYSQPPLFIICKQRRNNVTNVSPIAYYYVINGSVHQAPDMYSLVQSRLLGALEPLRNAFGEVTNYSRYNTAKGYYWEFKNKPNVKKREEEKKEDEEEKLEDRSTNFQKTRTMMLLNQLFSEMPAEDALEREEKEEVEEEEEETLKTEEPTTSTDEPKFAEPTARTTSKQ", "values": [{"measurement": "fold enrichment over GST alone", "setting": "[1]", "result": 7.7, "unit": "fold"}]}, {"binder": "His6-MDT-30-FLAG (natural protein) MNPNQPPNYPPGNPNQPPPFPPTPYYPMYQAGMPMPYIPQSPQYPQPGPPGGPPPFMGIQIKQEPMWSQENRYGMQAGPSGMPGMPPSSHPYGYPPMHGMPPGMPQGMPPMMDPNMPDFSSPPMHHPTTSLLAQHLSSAPLPPAPPQQQSHLSQLLQQPTTYSTATNPHAAPTQTIARRPDNEARNAQLQEQELAARQQQQQEYMLQQHQQQQQNRAGQLQAEQAFANPPTVSIPPQTGHPPQQTSASSQQRAQETMAQQTEPQSHIRESPQKETNLEKYSTGELCLYGRELVNDLNVKTSYLSTILKKVMERKPLNQGENPNDLADQCKNALQRMSDIRQIIEKRREPTWKRMTGEDYIELMLDDSELKKPMDEERQKRRAELEQRFAIVISKTPPVEGHIWYQGKWISEELHKKYMQFEANKEIVKNLAAELKALAWKIDVTSPGHLKKVDQTKISKKKTDDQV", "values": [{"measurement": "fold enrichment over GST alone", "setting": "[2]", "result": 2.5, "unit": "fold"}]}]}
